From US20140072563A1 (Regeneron, published 2014) come the findings set out here.

Numbering of substitutions follows the chain as printed. Numbers in names are those of the source.

The target in test [1] is hErbB3.mmh (soluble monomeric human ErbB3 extracellular domain with C-terminal myc-myc-hexahistidine tag) (human, UniProt P21860 20-642). The test can be described thus: SPR (Biacore), 25 C, mAb capture format. As to the method: (§1) (Tables 2-4). Measurements were conducted on a Biacore 2000 or T100 instrument. […] Kinetic association (kₐ) and dissociation (kd) rate constants were determined by processing and fitting the data to a 1:1 binding model using Scrubber 2.0 curve fitting software.
Chain of hErbB3.mmh (soluble monomeric human ErbB3 extracellular domain with C-terminal myc-myc-hexahistidine tag) (P21860 other isoform, or with tags, fused parts or gaps): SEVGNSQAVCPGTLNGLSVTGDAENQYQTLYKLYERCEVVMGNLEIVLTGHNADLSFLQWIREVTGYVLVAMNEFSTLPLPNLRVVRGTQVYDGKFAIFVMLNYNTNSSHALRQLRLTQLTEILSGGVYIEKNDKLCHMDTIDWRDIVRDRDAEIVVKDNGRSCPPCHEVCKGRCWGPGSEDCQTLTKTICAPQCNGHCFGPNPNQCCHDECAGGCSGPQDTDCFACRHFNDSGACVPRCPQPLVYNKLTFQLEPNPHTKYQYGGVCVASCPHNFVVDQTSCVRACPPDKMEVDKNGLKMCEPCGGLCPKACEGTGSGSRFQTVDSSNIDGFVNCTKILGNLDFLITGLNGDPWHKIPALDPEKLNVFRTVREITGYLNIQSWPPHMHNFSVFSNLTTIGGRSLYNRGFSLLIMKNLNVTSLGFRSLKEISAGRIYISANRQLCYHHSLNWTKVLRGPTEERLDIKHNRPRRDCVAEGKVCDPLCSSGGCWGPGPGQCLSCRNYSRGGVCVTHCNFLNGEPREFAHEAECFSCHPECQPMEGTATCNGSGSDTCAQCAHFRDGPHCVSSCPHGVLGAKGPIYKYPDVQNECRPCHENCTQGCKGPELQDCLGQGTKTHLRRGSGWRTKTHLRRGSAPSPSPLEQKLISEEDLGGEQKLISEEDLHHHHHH
(In SPR one partner is held on a chip, and binding of the other changes the refractive index at the surface.)

The target in test [2] is T1, hErbB3.mFc (soluble dimeric human ErbB3 extracellular domain fused to mouse Fc) (human).
T1 construct: called dimeric
T1 chain: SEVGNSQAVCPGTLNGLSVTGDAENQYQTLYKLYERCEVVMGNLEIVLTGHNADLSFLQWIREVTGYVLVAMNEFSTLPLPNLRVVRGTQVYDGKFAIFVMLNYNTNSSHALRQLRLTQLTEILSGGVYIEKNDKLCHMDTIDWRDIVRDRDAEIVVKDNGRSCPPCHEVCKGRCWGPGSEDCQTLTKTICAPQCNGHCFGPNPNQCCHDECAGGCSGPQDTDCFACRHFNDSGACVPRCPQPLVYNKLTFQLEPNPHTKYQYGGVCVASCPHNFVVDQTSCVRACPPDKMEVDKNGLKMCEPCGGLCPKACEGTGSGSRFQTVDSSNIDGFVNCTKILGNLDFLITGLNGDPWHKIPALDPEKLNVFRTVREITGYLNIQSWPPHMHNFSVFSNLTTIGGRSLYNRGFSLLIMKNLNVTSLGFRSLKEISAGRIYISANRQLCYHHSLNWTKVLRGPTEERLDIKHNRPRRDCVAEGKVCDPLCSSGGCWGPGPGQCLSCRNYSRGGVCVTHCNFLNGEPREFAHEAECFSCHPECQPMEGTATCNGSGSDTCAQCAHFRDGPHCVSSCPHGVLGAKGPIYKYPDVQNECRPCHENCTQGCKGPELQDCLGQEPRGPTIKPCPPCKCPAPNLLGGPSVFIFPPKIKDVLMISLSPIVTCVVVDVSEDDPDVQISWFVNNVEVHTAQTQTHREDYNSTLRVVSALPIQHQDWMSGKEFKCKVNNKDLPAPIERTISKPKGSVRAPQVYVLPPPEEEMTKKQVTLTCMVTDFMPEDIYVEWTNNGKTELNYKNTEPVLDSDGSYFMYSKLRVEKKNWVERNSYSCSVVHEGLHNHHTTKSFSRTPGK
The test can be described thus: SPR (Biacore), 25 C, mAb capture format. The protocol:
as §1

B1: H4H2098P (antibody, V domains shown)
VH: QVQLVESGGGVVQPGRSLRLSCAASGFTFSSFGMHWVRQAPGKGLEWVAVIWYVEINKYHADSVKGRFTISRDDSKNTVYLQMNSLRAEDTAVYYCARDWNDGDYGMDVWGQGTTVTVSS
VL: DIQLTQSPSFLSASVGDRVTITCWASQGISSFLAWYQQKAGKAPRLLIYAASTLQTGVPSRFSGSGSGTEFTLTISSLQPGDFATYHCQQLNSYPYTFGQGTKLEIKR
notes: Fully human, human IgG4 Fc (H4H prefix)
Take B1: in test [1], binding was put at a Kd of 69 pM; the T½ stood at 2.25 h; the koff (as a rule, a measure of how fast the partners let go of each other) amounted to 7.89e-05 s⁻¹; the kon (usually the rate constant with which the complex forms) is 1.14e+06 M⁻¹ s⁻¹. Besides, in test [2], the Kd – broadly, the constant that tells how readily two partners part at equilibrium – came to 4.06 pM; the T½ amounted to 19.8 h; the koff was 8.97e-06 s⁻¹; the kon amounted to 2.21e+06 M⁻¹ s⁻¹.

B2: H4H2084P (antibody, V domains shown)
VH: QVQLVESGGGVVQSGKSLRLSCVASGFTFSNYGMHWVRQTPGKGLEWVARIWFDGTNKYYTDSVKGRFTLSRDSSKNTLYLQMNSLRAEDTAVYFCAREESLELDHYVMDVWGQGTTVTVSS
VL: AIQMTQSPSSLSASVGDRVTITCRASQDIRDDLGWFQQKPGKAPNLLIYAASSLQSGVPSRFSGSGSGTDFTLTISSLQPEDFATYYCLQDYNYPLTFGGGTKVEIKR
notes: as for B1
In test [1], B2 gave a Kd of 23.9 pM, a T½ of 2.98 h, a dissociation rate constant (koff) of 5.96e-05 s⁻¹ and a kon of 2.49e+06 M⁻¹ s⁻¹. In test [2], this molecule registered a Kd of 1.03 pM, a T½ of 44.9 h, a koff of 3.95e-06 s⁻¹ and an on-rate (kon) of 3.83e+06 M⁻¹ s⁻¹.

B3: H4H2092P (antibody, V domains shown)
VH: EVQLVESGGGVVRPGGSLRLSCAASGFTFEDYGMNWVRQVPGKGLEWVSGTNWNGGITGYTGSVKGRFTISRDNAKNSLYLQMNSLRAEDTALYHCARDSGDQDAFDIWGQGTMVTVSS
VL: DIQLTQSPSFLSASVGDRVTITCWASQDISSYLAWYQQKPGKAPKLLIYAASTFQSGVPSRFSGSGSGTEFTLTISNLQPEDFATYYCQQLDSYPLSFGGGTKVEIKR
notes: as for B1
In test [1], B3 returned a Kd of 27.8 pM, a T½ of 1.72 h, a koff of 0.000103 s⁻¹ and a kon of 3.72e+06 M⁻¹ s⁻¹. In test [2], this molecule returned a Kd of 1.45 pM, a T½ of 23.8 h, a koff of 7.46e-06 s⁻¹ and a kon of 5.16e+06 M⁻¹ s⁻¹.

B4: H4H2102P (antibody, V domains shown)
VH: EVQLVESGGGLVQPGGSLRLSCAASGFTFSNYDIHWVRQATGKGLEWVSAIGPAGDTYYSDSVKGRFTISREDAKNSLYLQMSSLRAGDTAVYYCASEGIAVRPDDYYGMDVWGQGTTVTVSA
VL: B3 VL with S30T, Q38K, F54L, N77S, T85A, D92N, S97T, E105D
notes: as for B1
With B4, in test [1], the Kd stood at 55.1 pM, the T½ stood at 3.63 h, the koff stood at 4.88e-05 s⁻¹ and the kon is 886000 M⁻¹ s⁻¹. In test [2], binding was characterised by a dissociation constant (Kd) of 1.43 pM, the T½ was 78.7 h, the koff amounted to 2.26e-06 s⁻¹ and the association rate constant (kon) worked out at 1.58e+06 M⁻¹ s⁻¹.

B5: H4H2094P (antibody, V domains shown)
VH: EVQLVESGGGLVQPGGSLRLSCAASGFTFSSYDMHWVRQATGKGLEWVSAIGPAGDTYYPVSAMGRFTISRDDAKNSLYLQMNSLRAGDTAVYYCAREGVTIRPDDYFGLDVWGQGTTVTVSA
VL: B3 VL with D28G, S31D, Q38K, K45Q, S52T, F54L, N77S, D92N, S93T, S97T
notes: as for B1
Turning to B5, in test [1], the Kd came out at 7.22 pM, the T½ is 13 h, the koff was determined as 1.37e-05 s⁻¹ and the kon stood at 1.89e+06 M⁻¹ s⁻¹. In test [2], this molecule displayed a Kd of 0.452 pM, a T½ of 130 h, an off-rate constant (koff) of 1.37e-06 s⁻¹ and an on-rate constant (kon) of 3.03e+06 M⁻¹ s⁻¹.
